Test results taken from US20250092426, “CAS ENDONUCLEASES AND RELATED METHODS” (Flagship Pioneering Innovations VII, LLC, published 2025).

Molecular target: T1, CasEnd-17 (synthetic construct)
T1 chain: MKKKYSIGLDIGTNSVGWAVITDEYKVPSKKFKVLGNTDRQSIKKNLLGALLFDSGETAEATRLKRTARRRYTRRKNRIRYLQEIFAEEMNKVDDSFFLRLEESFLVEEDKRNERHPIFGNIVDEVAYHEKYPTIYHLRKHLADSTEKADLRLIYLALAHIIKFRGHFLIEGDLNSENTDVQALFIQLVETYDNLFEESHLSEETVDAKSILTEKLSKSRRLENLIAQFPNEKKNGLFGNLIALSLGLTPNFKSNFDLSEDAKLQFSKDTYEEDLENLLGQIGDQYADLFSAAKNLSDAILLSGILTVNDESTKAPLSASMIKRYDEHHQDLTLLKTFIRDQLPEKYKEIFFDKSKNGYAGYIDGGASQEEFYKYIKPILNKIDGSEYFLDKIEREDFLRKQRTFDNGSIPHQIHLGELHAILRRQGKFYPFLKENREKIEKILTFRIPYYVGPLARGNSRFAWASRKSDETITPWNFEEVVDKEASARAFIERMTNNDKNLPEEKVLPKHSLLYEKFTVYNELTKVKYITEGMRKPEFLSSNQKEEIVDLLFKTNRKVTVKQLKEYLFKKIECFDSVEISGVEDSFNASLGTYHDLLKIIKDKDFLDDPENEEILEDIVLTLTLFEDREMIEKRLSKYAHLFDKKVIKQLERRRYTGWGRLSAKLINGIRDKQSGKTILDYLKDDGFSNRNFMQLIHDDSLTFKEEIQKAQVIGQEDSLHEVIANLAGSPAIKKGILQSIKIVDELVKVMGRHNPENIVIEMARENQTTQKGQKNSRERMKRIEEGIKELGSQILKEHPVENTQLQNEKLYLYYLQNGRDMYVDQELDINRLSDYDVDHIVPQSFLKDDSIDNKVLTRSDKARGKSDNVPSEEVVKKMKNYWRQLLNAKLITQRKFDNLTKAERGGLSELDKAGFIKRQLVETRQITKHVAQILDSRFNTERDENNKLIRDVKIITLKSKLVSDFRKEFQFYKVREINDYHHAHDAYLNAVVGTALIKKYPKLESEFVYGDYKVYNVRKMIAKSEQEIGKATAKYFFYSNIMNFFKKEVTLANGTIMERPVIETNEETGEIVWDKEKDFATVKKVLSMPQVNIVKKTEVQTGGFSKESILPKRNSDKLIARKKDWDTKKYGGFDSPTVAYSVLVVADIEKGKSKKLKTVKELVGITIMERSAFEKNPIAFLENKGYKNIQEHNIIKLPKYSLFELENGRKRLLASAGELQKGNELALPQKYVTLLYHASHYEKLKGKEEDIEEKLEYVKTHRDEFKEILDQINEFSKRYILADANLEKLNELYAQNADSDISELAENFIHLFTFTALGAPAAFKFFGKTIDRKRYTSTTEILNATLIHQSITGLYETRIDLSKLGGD
Test: cell_activity; +++; HEK293T; PAM not stated
How it was run: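 Editing activity was scored as the fraction of GFP+ cells on day 4 by flow cytometry. BFP-expressing HEK293T cells (250,000) received by nucleofection 200 ng plasmid for the RT-Cas fusion protein and 200 ng template RNA plasmid designed to convert BFP to GFP.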

B1: BFP-to-GFP template RNA ; BFP reporter protospacer (ssRNA ; dsDNA)
RNA: GCCGAAGCACUGCACGCCGUGUUUUAGAGCUAGAAAUAGCAAGUUAAAAUAAGGCUAGUCCGUUAUCAACUUGAAAAAGUGGCACCGAGUCGGUGCACCCUGACGUACGGCGUGCAGUGCUU
DNA 1: GCCGAAGCACTGCACGCCGT
DNA 2: ACGGCGTGCAGTGCTTCGGC
  activity: ≥ 100 % of reference
